B1: HD5: Reduced human enteric defensin 5, literature result (peptide, UniProt Q01523 20-94, looked up)
Defensin alpha 5: ESLQERADEATTQKQSGEDNQDLAISFAGNGLSALRTSGSQARATCYCRTGRCATRESLSGVCEISGRLYRLCCR
modifications: Defensin-5 reduced form
notes: Reduced human enteric defensin 5, literature result

How the values were obtained:
L3 TM larvae = assay type: cell-based, Trichuris muris
Experimental: Synthetic reduced (r-)Defa1, r-Defa2, r-Defa4, r-Defa5 and r-Defa6, r-Defa20, r-Defa21, r-Defa23 and r-Defa24 were purchased from Medical and Biological Laboratories Co., Ltd. (Nagoya, japan) and stored at -30°C until use. Three pairs of disulfide bonds were introduced into synthetic Defa1 and Defa4 (Medical and Biological Laboratories Co., Ltd., Nagoya, japan) by air oxidation as described previously. Using reverse-phase high-performance liquid chromatography (RP-HPLC) reaction mixtures were applied to C-18 columns (SepaxHP-C18, 4.6 x 150mm, […]; Sepax Technologies, Newark, DE, USA) in 0.1% trifluoroacetic acid with an 18–36% acetonitrile gradient developed over 30min at 1ml/min. […] Disulfide bond status of Defas was evaluated by acid-urea PAGE and MALDI-TOF MS (Voyager-DE PRO; Applied Biosystems, Carlsbad, Calif., USA) as described previously. […]
Supplementary file pone.0211244.s012.pdf: S12 Fig Cytotoxic activity of α-defensins toward L3 TM larvae. Cytotoxic activity of reduced (r-) α-defensins 5, 20, 21, 23 and 24 against L3 TM larvae was measured by lactate dehydrogenase release assay. […]
Cytotoxic activity of reduced (r-) α-defensins 1, 2, 4, 5 and 6 against L3 TM larvae was measured by lactate dehydrogenase release assay. […]
Cytotoxic activity of reduced (r-) and oxidized (o-) α-defensins 1 and 4 against L3 TM larvae was measured by lactate dehydrogenase release assay. […]

[1] = test system: LPS; macrophage production of TNF; details: reduced peptide; ref [27]; cited from earlier work
Text: Given the prominence of α-defensin and α-defensin-related genes in the Mina genetic perturbation signature we considered whether they might contribute to the IEC-intrinsic roles of Mina in response to TM infection. Upregulation of α-defensins in Mina^ΔIEC mice could promote accelerated TM expulsion via multiple non-mutually exclusive mechanisms. First, it is well established that α-defensins can shape commensal microbiota diversity. Thus, α-defensins may act indirectly by altering commensal microbiota diversity, thereby eliminating niches essential for, or creating ones hostile toward, ...

Molecule | cytotoxicity against L3 TM larvae after oxidation of the peptide (oxidized, o-, form with three disulfide bonds), S14 Fig (L3 TM larvae) | LPS neutralization [1] | macrophage production of TNF [1]
Defa1: Synthetic reduced mouse α-defensin 1 peptide purchased from Medical and Biological Laboratories (LRDLVCYCRSRGCKGRERMNGTCRKGHLLYTLCCR; Alpha-defensin 1 reduced; UniProt P11477 59-93, looked up) | abolished by oxidation |  | 
B1 |  | can neutralize LPS | suppress

From article PMC6391002, “Myc-induced nuclear antigen constrains a latent intestinal epithelial cell-intrinsic anthelmintic pathway” (PLoS ONE, 2019)
